The values that follow come from patent publication US10398755B2, “Clusterin pharmaceuticals and treatment methods using the same” (UNIVERSITY OF SOUTHERN CALIFORNIA, priority 2009, dated 2019).

For this experiment, the target named is T1, MMP-7 (Mus musculus, UniProt Q10738).
T1 construct: purchased R&D Systems
T1 sequence (Q10738 95-264): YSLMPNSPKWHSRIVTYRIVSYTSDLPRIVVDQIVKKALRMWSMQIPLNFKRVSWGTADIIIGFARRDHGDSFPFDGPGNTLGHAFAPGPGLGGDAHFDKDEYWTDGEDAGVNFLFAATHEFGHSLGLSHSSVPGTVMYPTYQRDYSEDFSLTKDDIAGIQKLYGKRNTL
Put plainly: MMP inhibition assay (FRET peptide substrate), APMA-activated MMP-7. The class given is biochemical. Conditions: CLU 50 μg/ml (0.63 μM), RT 0.3 h. As to the method: Recombinant MMP-9 catalytic domain (A) or APMA-activated MMP-7 (B) was incubated with PBS, CLU (50 μg/ml or 0.63 μM), SB3-CT (2 μM), or BSA (50 μg/ml), and MMP FRET substrate at RT for 0.3 h. RFU in PBS samples was considered 100%. Each reaction was performed in triplicate. Standard errors were depicted as a bar in each graph. MMPs were mixed with CLD in TSCB buffer, 50 mM Tris-HCI, pH, 7.5, 150 mM NaCl, 5 mM CaCl2, 0.002% Brij35 (or otherwise indicated concentration) 30 min prior to substrate addition, and incubated for 3 h at RT in the presence or absence of 0.02 mM p-aminophenylmercuric acetate (APMA). MMP activity was measured using a 5-FAM/QXL520 fluorescence resonance energy transfer (FRET) peptide as a substrate (EXlEm=490 nm/520 nm) (AnaSpec, Fremont, Calif.), according to the manufacturer's protocol. Relative fluorescence unit (RFU) was obtained by subtracting the values of APMA- or enzyme-omitted reactions from those of test samples, and then considering the fluorescence unit of a PBS (vehicle) sample as 100%. Enzyme reactions were performed in black 96-well plate, containing combinations of 10 ng, 5 ng, 5 ng, 10 ng, 2.5 μg, 2.5 μg of MMP-2, MMP-7, catalytic domain of MMP-9, MMP-9, CCLU, and/or BSA, respectively, in 50 μl reaction volume. As MMP substrates (0.4 μM), 520 MMP FRET substrate […] […] Fluorescence was monitored using a Victor^3TM V multilabel counter (PerkinElmer). […]

B1: CLU: secreted disulfide-linked heterodimeric glycoprotein (70-80 KD); assays used recombinant mouse CLU with C-terminal (His)6 (protein, UniProt Q06890 22-448, looked up)
Clusterin: EQEVSDNELQELSTQGSRYINKEIQNAVQGVKHIKTLIEKTNAERKSLLNSLEEAKKKKEDALEDTRDSEMKLKAFPEVCNETMMALWEECKPCLKHTCMKFYARVCRSGSGLVGQQLEEFLNQSSPFYFWMNGDRIDSLLESDRQQSQVLDAMQDSFARASGIIDTLFQDRFFARELHDPHYFSPIGFPHKRPHFLYPKSRLVRSLMSPSHYGPPSFHNMFQPFFEMIHQAQQAMDVQLHSPAFQFPDVDFLREGEDDRTVCKEIRRNSTGCLKMKGQCEKCQEILSVDCSTNNPAQANLRQELNDSLQVAERLTEQYKELLQSFQSKMLNTSSLLEQLNDQFNWVSQLANLTQGEDKYYLRVSTVTTHSSDSEVPSRVTEVVVKLFDSDPITVVLPEEVSKDNPKFMDTVAEKALQEYRRKSRAE
modifications: C-terminal His6 tag
For the molecule B1, the “inhibition of APMA-activated MMP-7” value worked out at 17%.
